Data from patent US8691960B2, “Oxidoreductases for enantioselective reactions” (Duke University, priority 2012, dated 2014).
Entries after “also recorded” stand apart in the source; their conditions may differ.

Legend:
Format in all cases: biochemical
[1] = NADH oxidation with 2-oxoadipate plus CO2 added as NaHCO3 (reductive carboxylation)
Description: (§1) NADH, 2-oxoadipate, 2-oxoglutarate, 2-heptandioate, and MgCl2 were from Sigma. Standard reaction mixes contained 15 mM 2-oxoadipate, 100 μM NADH, and a reaction buffer with final concentrations of 20 mM MgCl2 and 500 mM HEPES, pH 7.3. NADH oxidation was monitored by the decrease in fluorescence with excitation of 340 nm and emission of 450 nm on a PolarSTAR Optima plate reader (BMG Labtech). Fluorescence monitored reactions were carried out in 10-μL volumes in a 384-well black microplate (Greiner 788076) covered with clear optical film. The levels of fluorescence were converted to NADH concentrations based on standards of NADH in reaction buffer containing BSA. Reactions with high amounts of NADH were monitored by the UV absorbance of NADH at 340 nm in 40-μL reaction volumes in clear 96-well plates.
(§2) Reaction rates are NADH oxidation per unit time per unit of purified enzyme or crude lysate and 1 Unit (U) is 1 μmolNADH min^−1 mgenzyme^−1. Rates are initial rates calculated by least squares linear regression on the first 10 minutes of the reaction. For KM determination, concentrations of substrate/cofactors at least 5×-higher than the KM were used, while the species of interest was varied in concentration; substrate/cofactor concentrations: 500 μM NADH; 15 mM 2-oxoadipate; 20 mM MgCl2. Reported α-hydroxyadipate (2-hydroxy adpic acid) Vmax values were obtained from 2-oxoadipate KM determination experiments. Michaelis-Menten KM and Vmax parameters were estimated by fitting data to a curve using nonlinear regression in GraphPad Prism 5.0 (GraphPad Software, La Jolla, Calif.).

[2] = Enantiospecific LC-MS/MS quantification of (R)- and (S)-2-hydroxyadipate product; conditions: TtHIDH, 2 h
Description: Quantitative, enantiospecific LC-MS/MS was performed based on the procedure described for 2-hydroxyglutarate. Jin et al., PLoS one 6, e16812: 1-8 (2011); Struys, et al., Clin. Chem. 50: 1391-1395 (2004). To 20 μL of reaction mix, 2 μL of 130 μg/mL of a racemic mixture of [3,3,4,4-^2H4]-2-hydroxyglutarate (internal standard) in water was added and the mixture dried by vacuum centrifuge (50° C., 15 min). The dry residue was treated with 50 mg/mL freshly prepared diacetyl-L-tartaric anhydride (Sigma) in dichloromethane/glacial acetic acid (4:1 by volume) and heated (75° C., 30 min). After drying (50° C., 15 min) the residue was dissolved in 100 μL of LC mobile phase A (see below) for analysis. An Agilent 1200 series HPLC (Santa Clara, Calif.) was used for liquid chromatography (LC) and a Sciex/Applied Biosystems API 3200 QTrap (Carlsbad, Calif.) was used for triple quadrupole mass spectrometry (MS/MS). Mobile phase A: water, 3% acetonitrile, 280 μL ammonium hydroxide (^˜25%), pH adjusted to 3.6 with formic acid (^˜98%). Mobile phase B: methanol. Analytical column: Kinetex C-18, 150×4.6 mm, 2.6 μm, and SafeGuard C-18 4×3 mm guard-column from Phenomenex (Torrance, Calif.). Column temperature: 45° C. Elution gradient at 1 mL/min flow rate: 0-1 min 0% B, 1-2 min 0-100% B, 2-3.5 min 100% B, 3.5-4 min 100-0% B, 4-10 min 0% B. Injection volume: 10 μL. Q1/Q3 (m/z) transitions were monitored: 377/161, 2-hydroxyadipate (2HA) and 367/151, [3,3,4,4-^2H4]-2-hydroxyglutarate (2HG-d4). To calibrate, 0, 0.16, 0.54, 1.8, 6, and 20 μg/mL 2-hydroxyadipate (Sigma), synthesized as described above, was analyzed in reaction buffer. (R)- and (S)-enantiomers were discriminated based on time of elution from the HPLC column, using the relative elution time for (R)-2-hydroxyglutarate compared to the racemic mixture of 2-hydroxyglutarate described previously to identify the (R)-2-hydroxyadipate enantiomer. Jin et al., PLoS one 6, e16812: 1-8 (2011). Standards were analyzed alongside experimental samples. Accuracy acceptance criteria were 85% for all but the lowest level (0.16 μg/mL, 80%).

[3] = NADH oxidation rate of purified HIDH enzymes with 2-oxoadipate (fluorescence / UV 340 nm); conditions: 100 μM NADH
Description: as §1, §2
Assays were performed with 40 ng/μL enzyme, 15 mM 2-oxoadipate, 100 μM NADH, 20 mM MgCl2 and 100 mM HEPES, pH 7.3 in 10 or 20 μL volumes in 384-well black microplates. NADH concentration was monitored by the decrease in fluorescence (excitation wavelength: 340 nm; emission wavelength: 450 nm) on a fluorescent plate reader. The fluorescence intensities were converted to NADH concentrations based on NADH standards. Reactions with high amounts of NADH (>300 μM) were monitored by the UV absorbance of NADH at 340 nm in a 40 μL reaction volume in a clear 96-well plate on the same plate reader. Reactions with ScHIDH were carried out at 25° C. and reactions with TtHIDH were carried out at 45° C. Reported rates are initial rates from the first 10 minutes of reaction. For KM determination, concentrations of substrate at least 5×-higher than the KM were used (for NADH, 500 μM; for 2-oxoadipate, 15 mM) while the substrate of interest was varied in concentration. KM and Vmax were estimated by fitting data to equation (1) using nonlinear regression, where x is substrate concentration and y is the rate. y=Vmax·x/KM+x (1) Rate data for ScHIDH-R143C, -R143H, and -R143K are summarized in Table 3.

[4] = 2-hydroxyadipate dehydrogenase activity of crude bacterial lysates expressing ScHIDH mutants; conditions: 100 μM NADH substrate
Description: To obtain crude lysates, 0.5 mL of starter cultures generated as described above were added to 4.5 mL LB-Amp, shaken for 2 h, and shaken for an additional 2 h after induction with 1 mM IPTG. Pellets from these cultures were harvested by centrifugation at 4500×g at 4° C. These pellets were resuspended into 500 μL of Buffer A (0.2% Triton-X 100, 1 mM PMSF, 0.5 mM EDTA, 10 mM Tris, pH 7.5) on ice and sonicated for 6-cycles of 15 seconds each on ice on a Sonifer 250 (Branson). This was then spun down at 13,000×g at 4° C. for 15 min and the cleared lysates were normalized with additional lysis buffer to 700 ng/4 and stored at −80° C. as aliquots. Protein concentrations were determined using the BioRad Protein Assay reagent according to the manufacturer's instructions.
as §1, §2

B1: TtHIDH-R118H: Thermus thermophilus homoisocitrate dehydrogenase R118H mutant (protein)
chain: MAYRICLIEGDGIGHEVIPAARRVLEATGLPLEFVEAEAGWETFERRGTSVPEETVEKILSCHATLFGAATSPTRKVPGFFGAIRYLRRRLDLYANVRPAKSRPVPGSRPGVDLVIVHENTEGLYVEQERRYLDVAIADAVISKKASERIGRAALRIAEGRPRKTLHIAHKANVLPLTQGLFLDTVKEVAKDFPLVNVQDIIVDNCAMQLVMRPERFDVIVTTNLLGDILSDLAAGLVGGLGLAPSGNIGDTTAVFEPVHGSAPDIAGKGIANPTAAILSAAMMLDYLGEKEAAKRVEKAVDLVLERGPRTPDLGGDATTEAFTEAVVEALKSL
modifications: TtHIDH R118H polypeptide
notes: Thermus thermophilus homoisocitrate dehydrogenase R118H mutant
rate of NADH consumption with NaHCO3 added ([1]; TtHIDH, 2-oxoadipate and NADH, CO2 added as NaHCO3): 0.059 U
increase of (R)-2-hydroxyadipate concentration after 2 h ([2]; 100 μM NADH, 15 mM 2-oxoadipate, 45° C.): 61.3 µM
increase of (S)-2-hydroxyadipate ([2]; same reaction): No increase
decrease of NADH concentration after 2 h ([3]; TtHIDH, 15 mM 2-oxoadipate, 45° C., 2 h): 61.3 µM
initial rate of NADH oxidation ([3]; TtHIDH, 15 mM 2-oxoadipate, 45° C., U = μmol NADH min^−1 mg^−1): 0.058±0.0031 U

B2: ScHIDH-V111D: Saccharomyces cerevisiae homoisocitrate dehydrogenase V111D mutant (protein)
chain: MFRSVATRLSACRGLASNAARKSLTIGLIPGDGIGKEVIPAGKQVLENLNSKHGLSFNFIDLYAGFQTFQETGKALPDETVKVLKEQCQGALFGAVQSPTTKVEGYSSPIDALRREMGLFANVRPVKSVEGEKGKPIDMVIVRENTEDLYIKIEKTYIDKATGTRVADATKRISEIATRRIATIALDIALKRLQTRGQATLTVTHKSNVLSQSDGLFREICKEVYESNKDKYGQIKYNEQIVDSMVYRLFREPQCFDVIVAPNLYGDILSDGAAALVGSLGVVPSANVGPEIVIGEPCHGSAPDIAGKGIANPIATIRSTALMLEFLGHNEAAQDIYKAVDANLREGSIKTPDLGGKASTQQVVDDVLSRL
modifications: ScHIDH V111D polypeptide
notes: Saccharomyces cerevisiae homoisocitrate dehydrogenase V111D mutant
2-hydroxyadipate dehydrogenase activity in crude bacterial lysates [4]: did not demonstrate 2-hydroxyadipate dehydrogenase activity

B3: ScHIDH-R114Q: Saccharomyces cerevisiae homoisocitrate dehydrogenase R114Q mutant (protein)
chain: MFRSVATRLSACRGLASNAARKSLTIGLIPGDGIGKEVIPAGKQVLENLNSKHGLSFNFIDLYAGFQTFQETGKALPDETVKVLKEQCQGALFGAVQSPTTKVEGYSSPIVALQREMGLFANVRPVKSVEGEKGKPIDMVIVRENTEDLYIKIEKTYIDKATGTRVADATKRISEIATRRIATIALDIALKRLQTRGQATLTVTHKSNVLSQSDGLFREICKEVYESNKDKYGQIKYNEQIVDSMVYRLFREPQCFDVIVAPNLYGDILSDGAAALVGSLGVVPSANVGPEIVIGEPCHGSAPDIAGKGIANPIATIRSTALMLEFLGHNEAAQDIYKAVDANLREGSIKTPDLGGKASTQQVVDDVLSRL
modifications: ScHIDH R114Q polypeptide
notes: Saccharomyces cerevisiae homoisocitrate dehydrogenase R114Q mutant
2-hydroxyadipate dehydrogenase activity in crude bacterial lysates [4]: did not demonstrate 2-hydroxyadipate dehydrogenase activity

B4: ScHIDH-R115Q: Saccharomyces cerevisiae homoisocitrate dehydrogenase R115Q mutant (protein)
chain: MFRSVATRLSACRGLASNAARKSLTIGLIPGDGIGKEVIPAGKQVLENLNSKHGLSFNFIDLYAGFQTFQETGKALPDETVKVLKEQCQGALFGAVQSPTTKVEGYSSPIVALRQEMGLFANVRPVKSVEGEKGKPIDMVIVRENTEDLYIKIEKTYIDKATGTRVADATKRISEIATRRIATIALDIALKRLQTRGQATLTVTHKSNVLSQSDGLFREICKEVYESNKDKYGQIKYNEQIVDSMVYRLFREPQCFDVIVAPNLYGDILSDGAAALVGSLGVVPSANVGPEIVIGEPCHGSAPDIAGKGIANPIATIRSTALMLEFLGHNEAAQDIYKAVDANLREGSIKTPDLGGKASTQQVVDDVLSRL
modifications: ScHIDH R115Q polypeptide
notes: Saccharomyces cerevisiae homoisocitrate dehydrogenase R115Q mutant
NADH oxidation when CO2 was provided as NaHCO3 ([1]; purified enzyme, 15 mM 2-oxoadipate, 100 μM NADH, 0-42 mM NaHCO3): did oxidize NADH
2-hydroxyadipate dehydrogenase activity in crude bacterial lysates [4]: did not demonstrate 2-hydroxyadipate dehydrogenase activity
NADH oxidation by purified enzyme in the presence of 2-oxoadipate ([3]; standard reaction conditions, 10 mM 2-oxoadipate, 20 mM MgCl2): behaved essentially the same as wild type; also recorded: did not oxidize NADH

B5: ScHIDH-Y150D: Saccharomyces cerevisiae homoisocitrate dehydrogenase Y150D mutant (protein)
chain: MFRSVATRLSACRGLASNAARKSLTIGLIPGDGIGKEVIPAGKQVLENLNSKHGLSFNFIDLYAGFQTFQETGKALPDETVKVLKEQCQGALFGAVQSPTTKVEGYSSPIVALRREMGLFANVRPVKSVEGEKGKPIDMVIVRENTEDLDIKIEKTYIDKATGTRVADATKRISEIATRRIATIALDIALKRLQTRGQATLTVTHKSNVLSQSDGLFREICKEVYESNKDKYGQIKYNEQIVDSMVYRLFREPQCFDVIVAPNLYGDILSDGAAALVGSLGVVPSANVGPEIVIGEPCHGSAPDIAGKGIANPIATIRSTALMLEFLGHNEAAQDIYKAVDANLREGSIKTPDLGGKASTQQVVDDVLSRL
modifications: ScHIDH Y150D polypeptide
notes: Saccharomyces cerevisiae homoisocitrate dehydrogenase Y150D mutant
2-hydroxyadipate dehydrogenase activity in crude bacterial lysates [4]: did not demonstrate 2-hydroxyadipate dehydrogenase activity
